Numbering of substitutions follows the chain as printed.
B1: M103205H795-MY460/M103202L889-SK1 (antibody, human IgG1, kappa)
heavy: QVTLKESGPVLVKPTETLTLTCTVSGIDLSHDDISWVRQAPGKGLEWVGIISYAGSTYYASWAKGRLTISKDTSKNQVVLTMTNMDPVDTATYYCARGVPAYSHGGDLWGQGTLVTVSSASTKGPSVFPLAPSSKSTSGGTAALGCLVKDYFPEPVTVSWNSGALTSGVHTFPAVLQSSGLYSLSSVVTVPSSSLGTQTYICNVNHKPSNTKVDKKVEPKSCDKTHTCPPCPEPELLTGPSVFLFPPKPKDTLMISRTPEVTCVVVDVSDEDPEVKFNWYVDGVEVHNAKTKPREEQYNSTYRVVSVLTVLHQDWLNGKEYKCKVSNKALPKPIEKTISKAKGQPREPQVYTLPPSREEMTKNQVSLTCLVKGFYPSDIAVEWESNGQPENNYKTTPPVLDSDGSFFLYSKLTVDKSRWQQGNVFSCSVMHEALHNHYTQKSLSLSP
light: DIVMTQSPATLSLSPGERATLSCTSSQSVYHANWLSWFQQKPGQPPKLLIYWASTLAYGVPSRFSGSGSGTDFTLTISSLQPEDAATYYCAGGYGGGRYAFGQGTKVEIKRTVAAPSVFIFPPSDEQLKSGTASVVCLLNNFYPREAKVQWKVDNALQSGNSQESVTEQDSKDSTYSLSSTLTLSKADYEKHKVYACEVTHQGLSSPVTKSFNRGEC
notes: copies: 2 + 2
B2: M103205H795-MY466/M103202L889-SK1 (antibody, human IgG1, kappa)
heavy: B1 heavy with E233L
light: B1 light
notes: copies: 2 + 2
B3: M103205H795-MY467/M103202L889-SK1 (antibody, human IgG1, kappa)
heavy: B1 heavy with E233M
light: B1 light
notes: copies: 2 + 2
B4: M103205H795-MY464/M103202L889-SK1 (antibody, human IgG1, kappa)
heavy: B1 heavy with E233I
light: B1 light
notes: copies: 2 + 2
B5: M103205H795-MY461/M103202L889-SK1 (antibody, human IgG1, kappa)
heavy: B1 heavy with E233F
light: B1 light
notes: copies: 2 + 2
B6: M103205H795-MY468/M103202L889-SK1 (antibody, human IgG1, kappa)
heavy: B1 heavy with E233N
light: B1 light
notes: copies: 2 + 2
B7: M103205H795-MY462/M103202L889-SK1 (antibody, human IgG1, kappa)
heavy: B1 heavy with E233G
light: B1 light
notes: copies: 2 + 2
B8: M103205H795-MY463/M103202L889-SK1 (antibody, human IgG1, kappa)
heavy: B1 heavy with E233H
light: B1 light
notes: copies: 2 + 2
B9: M103205H795-MY465/M103202L889-SK1 (antibody, human IgG1, kappa)
heavy: B1 heavy with E233K
light: B1 light
notes: copies: 2 + 2
B10: M103205H795-MY470/M103202L889-SK1 (antibody, human IgG1, kappa)
heavy: B1 heavy with E233Q
light: B1 light
notes: copies: 2 + 2
B11: M103205H795-MY469/M103202L889-SK1 (antibody, human IgG1, kappa)
heavy: B1 heavy with E233P
light: B1 light
notes: copies: 2 + 2

Legend:
Assay in all cases: SPR (BIACORE); KD of SG1 divided by KD of variant;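 note: relative to parent M103205H795-SG1 carrying the SG1 human heavy chain constant region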
[1] = biological target: T1, cynomolgus monkey FcγRIIa1 extracellular domain, His-tagged (cynomolgus monkey)
T1 construct: also called cyno FcγRIIa1; cynoFcgRIIa1; not shown: C-terminal His-tag
T1 chain: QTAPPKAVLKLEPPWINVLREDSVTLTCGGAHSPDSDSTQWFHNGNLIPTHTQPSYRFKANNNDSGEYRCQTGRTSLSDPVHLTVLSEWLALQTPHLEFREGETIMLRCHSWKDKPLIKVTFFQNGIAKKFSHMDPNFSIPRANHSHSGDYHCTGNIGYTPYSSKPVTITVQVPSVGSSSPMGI
Description: (§1) The kinetic analysis of interactions between these antibodies and FcγR was carried out using BIACORE® T200 or BIACORE® 4000 (GE Healthcare). HBS-EP+ (GE Healthcare) was used as the running buffer, and the measurement temperature was set to 25° C. A chip produced by immobilizing Protein A. Protein A/G or mouse anti-human IgG kappa light chain (BD Biosciences) onto a Series S Sensor Chip CM4 or CM5 (GE Healthcare) by the amine-coupling method was used. […] After the measurement, the antibody captured on the chip was washed off by allowing reaction with 10 mM glycine-HCl, pH1.5 and 25 mM NaOH so that the chip was regenerated and used repeatedly. The sensorgrams obtained as measurement results were analyzed by the 1:1 Langmuir binding model using the BIACORE® Evaluation Software to calculate the binding rate constant ka (L/mol/s) and dissociation rate constant kd (l/s), and the dissociation constant KD (mol/L) was calculated from these values. […] Regarding such interactions, KD values were calculated using the following 1:1 binding model described in BIACORE® T100 Software Handbook BR1006-48 Edition AE.

[2] = biological target: T2, cynomolgus monkey FcγRIIa2 extracellular domain, His-tagged (cynomolgus monkey)
T2 construct: also called cyno FcγRIIa2; cynoFcgRIIa2; not shown: C-terminal His-tag
T2 chain: T1 chain with P95T, T121A, I127K, A128S, K130N, D135N, R142Q
Description: as §1

[3] = biological target: T3, cynomolgus monkey FcγRIIa3 extracellular domain, His-tagged (cynomolgus monkey)
T3 construct: also called cyno FcγRIIa3; cynoFcgRIIa3; not shown: C-terminal His-tag
T3 chain: T1 chain with P95T, T121A, A128S, H133P, D135N
Description: as §1

[4] = biological target: T4, cynomolgus monkey FcγRIIIaS extracellular domain, His-tagged (cynomolgus monkey, UniProt Q8SPW2 21-206 at identity 1.00))
T4 construct: also called cyno FcγRIIIaS; cynoFcγRIIIaS; not shown: C-terminal His-tag
T4 chain: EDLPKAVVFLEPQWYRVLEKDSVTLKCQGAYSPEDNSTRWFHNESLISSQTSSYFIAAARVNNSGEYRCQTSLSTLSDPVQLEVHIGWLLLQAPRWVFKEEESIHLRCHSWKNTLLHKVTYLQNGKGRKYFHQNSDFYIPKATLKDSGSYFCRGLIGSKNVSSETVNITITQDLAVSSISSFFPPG
Description: as §1

[5] = biological target: T5, human FcγRIIaH extracellular domain, His-tagged (human, UniProt P12318 34-217)
T5 construct: also called human FcγRIIa (type H); FcgRIIaH; not shown: C-terminal His-tag
T5 sequence: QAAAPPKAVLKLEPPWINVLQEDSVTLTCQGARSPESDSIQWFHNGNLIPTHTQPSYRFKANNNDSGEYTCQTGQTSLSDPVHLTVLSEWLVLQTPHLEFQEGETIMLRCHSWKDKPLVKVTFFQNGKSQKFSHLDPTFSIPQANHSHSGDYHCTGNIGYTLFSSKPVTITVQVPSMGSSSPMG
Description: as §1

[6] = biological target: T6, human FcγRIIb extracellular domain, His-tagged (human, UniProt P31994 43-217)
T6 construct: also called FcgRIIb (human); not shown: C-terminal His-tag
T6 sequence: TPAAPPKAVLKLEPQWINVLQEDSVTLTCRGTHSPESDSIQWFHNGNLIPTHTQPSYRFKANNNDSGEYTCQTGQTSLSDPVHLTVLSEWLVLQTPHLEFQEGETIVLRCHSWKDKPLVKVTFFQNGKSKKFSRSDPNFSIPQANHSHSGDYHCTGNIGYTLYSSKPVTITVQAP
Description: as §1

[7] = biological target: T7, human FcγRIIIaV extracellular domain, His-tagged (human, UniProt P08637 17-208)
T7 construct: also called FcgRIIIaV; not shown: C-terminal His-tag
Description: as §1

T7 sequence (P08637 17-208 F176V): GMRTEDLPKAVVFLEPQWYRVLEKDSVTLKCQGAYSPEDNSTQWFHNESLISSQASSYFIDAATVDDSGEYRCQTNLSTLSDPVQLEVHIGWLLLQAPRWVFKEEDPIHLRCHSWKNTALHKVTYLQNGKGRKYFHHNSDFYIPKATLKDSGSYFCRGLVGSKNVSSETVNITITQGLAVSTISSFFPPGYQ

| Binder | KD fold (SG1 = 1) [1] [fold] | KD fold (SG1 = 1) [2] [fold] | KD fold (SG1 = 1) [3] [fold] | KD fold (SG1 = 1) [4] [fold] | KD fold (SG1 = 1) [5] [fold] | KD fold (SG1 = 1) [6] [fold] | KD fold (SG1 = 1) [7] [fold] |
| --- | --- | --- | --- | --- | --- | --- | --- |
| B1 | 1 | 1.6 | 3.1 | 0.1 | 2.7 | 1.9 | 0.1 |
| B2 | 1.7 | 2.3 | 3.9 | 0.2 | 4.1 | 3.3 | 0.3 |
| B3 | 1.7 | 2.7 | 3.6 | 0.2 | 3.8 | 2.3 | 0.2 |
| B4 | 1.7 | 3.4 | 4.4 | 0.2 | 4.1 | 2.9 | 0.2 |
| B5 | 1.8 | 2.5 | 4.9 | 0.2 | 3.8 | 2.7 | 0.3 |
| B6 | 1.1 | 2 | 3.3 | 0.2 | 2.5 | 1.8 | 0.1 |
| B7 | 1.7 | 3.2 | 4 | 0.2 | 2.9 | 2.4 | 0.3 |
| B8 | 1.5 | 2.3 | 3.9 | 0.2 | 3.1 | 2 | 0.2 |
| B9 | 1.6 | 1.3 | 3.3 | 0.2 | 2.8 | 1.6 | 0.1 |
| B10 | 1.5 | 2.8 | 3.5 | 0.2 | 3.3 | 2 | 0.2 |
| B11 | 1.5 | 2.4 | 3.5 | 0.2 | 3.5 | 1.9 | 0.1 |

From patent US20200317768A1 (published 2020)
